Laboratory results reported in patent US20140010757A1 (Stanford University, published 2014).
No end group written: not given here.

How the values were obtained:
[1] = target: αvβ3 integrin on cells (U87MG glioblastoma cells; K562-αvβ3 cells) (UniProt P06756); assay: competing off binding of ^125I-echistatin (U87MG cells)
[2] = target: T1, αvβ3 integrin on cells (U87MG glioblastoma cells; K562-αvβ3 cells) (UniProt P06756 31-1048; P05106 27-788); assay: competition with ^125I-echistatin on U87MG cells
T1 construct: whole, on cells; also called cell surface αvβ3 integrin

[3] = target: T2, α5β1 integrin (detergent-solubilized) (UniProt P08648 42-1049; P05556 21-798); assay: competition with ^125I-echistatin on plate-coated detergent-solubilized integrin
T2 construct: Coated on microtiter plates; also called integrin α5β1

Molecule: WT (synthesized Agouti peptide)
- IC50 [1]: 1.4 µM

B1: ^64Cu-DOTA-7C AgRP engineered peptide (designed binder)
chain: GCVRLHESCLGQQVPCCDPAATCYCYGRGDNDLRCYCR
modifications: ends and bridges not checked; also: DOTA-64Cu label (site not given here)
notes: also called ^64Cu Labeled AgRP loop 4 RDG mutant (peptide 7C); labeled 7C
- binding result [2]: binds

B2: echistatin (unlabeled) (ligand)
chain: QCESGPCCRNCKFLKEGTICKRARGDDMDDYCNGKTCDCPRNPHKGPAT
modifications: ends and bridges not checked; cysteine pairing not given here
- binding result [3]: binds
